According to patent US11945858B2, “Antibodies and antibody fragments against HNAV1.7 channel and their use in pain and cancer indications” (NATIONAL RESEARCH COUNCIL OF CANADA, priority 2018, dated 2024):
“Also recorded” adds a separate entry of the source.

Key:
[1] = tested on: CHO-3E7; assay: Cell-ELISA on live CHO-3E7 cells; format: cell-based, Chinese hamster; details: hybridoma supernatant, OD450 nm
Experimental: Cell-ELISA. Sterile 96-well plates (Costar #3595) were pre-treated with 50 μl/well of branched polyethyleneimine (PEI, Sigma Cat #408727) at 25 μg/ml in PBS for 30 min at room temperature. PEI was removed and CHO-3E7 or hNAv1.7-CHO (ChanTest cat #CT4003) were seeded at 6×10^5 cells per well in FreeStyle F17 Expression Medium (Gibco Cat #A1383501) and incubated overnight at 37° C., 5% CO2. Microplates were blocked with Starting block (Thermofisher Cat #37538) for 30 min at room temperature, and 50 μl of hybridoma supernatants were added and incubated at 4° C. for 3 h. Plates were washed 5 times with PBS and incubated for one hour at 4° C. with 50 μl of secondary antibody HRP-conjugated F(ab′)2 goat anti-mouse IgG (H+L) (Jackson Immunoresearch #115-036-062) diluted 1/5000 in blocking buffer. After 10 washes with PBS, 50 μl of TMB substrate solution (Pierce Cat #34021) was added and further incubated for 60 min at room temperature. Twenty-five μl/well of stop solution ([…] 1M) was added and OD450 nm measurements were done using a microplate reader (Spectramax 340 PC, Molecular Devices).

[2] = molecular target: hNav1.7 channels (Homo sapiens, UniProt Q15858, W1161R); assay: Patch-clamp whole-cell recordings in hNav1.7-HEK293 cells; format: cell-based
[3] = tested on: CFA-induced thermal hyperalgesia; assay: Hargreaves Model of Hyperalgesia in rats; format: in vivo, rat; details: for Maximum percentage of the effect (% Effect; % MPE): time of maximum (1, 2 or 4 h)
Experimental: Hargreaves Model of Hyperalgesia in rats. Rats aged 4-6 weeks (weight range, 180-220 g) were used for intraplantar (ipl) administrations of various antibodies and evaluation of their efficacy in the Hargreaves model of inflammatory pain. Chronic inflammatory pain is induced by injecting a low volume (50 μl) of complete Freund's adjuvant (CFA; heat-killed M. tuberculosis—Sigma, St. Louis, Mo.—suspended in oil:saline 2:1 emulsion) into the right hind paw. The paw withdrawal latency in response to the application of a radiant stimulus onto the plantar surface of both right and left paw was measured using the plantar Analgesia Meter equipment for paw stimulation (IITC Life Science, Woodland Hills, Calif.). The time taken by the animal to respond by licking or flicking its paw is interpreted as positive response (paw withdrawal latency). After 48 h of the CFA injection, the baseline for latency paw withdrawal was measured and the mAbs tested. […] A cut-off time (20 sec) is established at the end of which the heat source shuts off automatically to avoid tissue damage. Animals were kept (randomized) one per cage and staff performing pain experiments are blinded to the content of injectable compounds. Percentage of maximum possible effect (% MPE) was calculated using the formula % MPE=(Test Latency−Baseline Latency)×100/(Cut-off−Baseline Latency).

[4] = tested on: OD1-evoked Nav1.7-mediated spontaneous pain behaviours; format: in vivo, mouse; details: 100 μg, injected 60 minutes prior to OD1; 20 min after the injection
[5] = molecular target: T1, FC5DIE3IR (Homo sapiens, UniProt Q15858); assay: Surface Plasmon Resonance of mAbs, FC5DIE3IR; format: binding
T1 construct: The supernatant was collected and loaded on a 5 ml MabSelect™ SuRe™ column; made in house; host or cells: CHO-3E7 (transient, pTT5 vector), purified from supernatant
Experimental: (§1) Surface Plasmon Resonance of mAbs. FC5 and FC5DIE3IR proteins were SEC purified using a Superdex 75 column (GE Healthcare) connected to an AKTAPurifier (GE Healthcare) in HBS-EP+ running buffer (10 mM HEPES, pH 7.4, containing 150 mM NaCl, 3 mM EDTA and 0.05% P20) at a flow rate of 1 ml/min. Monomeric eluted peaks were used to flow over Fc-capture 3A8 mAb surfaces. To prepare the 3A8 mAb surfaces, approximately 6000 RUs of anti-mouse IgG (GE Healthcare) was first immobilized on CM5 Series S sensor chips (GE Healthcare) at pH 5.0, using standard amine coupling methods previously reported (Hussack et al., 2011) and according to the manufacturer's instructions (GE Healthcare). HBS-EP running buffer used for SPR experiments. The mAb 3A8 was captured on the anti-mouse IgG surface using 10 μg/ml of mAb, 30 sec contact time and flow rate of 10 μl/min. IMAC-purified DI-D VHH was passed through a Superdex 75 (GE Healthcare) column for SEC purification in HBS-EP buffer (10 mM HEPES, pH 7.4, containing 150 mM NaCl, 3 mM EDTA and 0.005% P20), connected to an AKTAPurifier (GE Healthcare) at a flow rate of 1 ml/min. Test binding experiments of FC5 control and FC5DIE3IR involved flowing 1 μM concentrations of SEC-pure material over the mAb surface at a flow rate of 30 μl/min for 5 min. Surfaces could be regenerated using 10 mM glycine, pH 1.7, with a 120 sec pulse at 20 μl/min. All SPR experiments were evaluated with Biacore T200 Software v 3.0. For kinetic analysis, single cycle kinetic analysis was used by flowing a range of FC5DIE3IR concentrations (320 nM-20 nM) at a flow rate of 30 μl/min, with 600 sec contact time and 1200 sec dissociation. Regeneration conditions were the same as above. Data were fit to a 1:1 binding model and analyzed using the Biacore T200 Software v3.0.
(§2) Surfaces were regenerated by washing with running buffer (HBS-EP). Data were analyzed with BIAevaluation 4.1 software as described (Hussack et al., 2011) and affinities determined using the steady state binding model.
(§3) Surface Plasmon Resonance (SPR) for monoclonal antibodies.

[6] = tested on: VHH FC5; assay: Surface Plasmon Resonance of mAbs, FC5 control; format: binding; details: SPR; 25 °C
Experimental: as §1, §2, §3

[7] = tested on: overlapping antigen-peptides derived from DIE3IR; assay: ELISA of mAbs on overlapping antigen-peptides derived from DIE3IR; format: binding, human; details: peptides coated 100-500 ng/well
Experimental: The peptides were custom-synthesized (Biomatik) and tested for antibody binding by ELISA. […] The wells were blocked with 1% BSA in TBS-T for 30 min and then incubated with 1:1000 dilution of anti-hNav1.7 mAb at room temperature (RT) for one hr. Following three TBS-T washes (3×5 min), mAb binding to peptides was detected by incubating with HRP-conjugated anti-mouse Fc antibody for 90 min at RT in TBS-T. The bound antibody was detected with SureBlue™ TMB reagent kit (KPL) by colorimetric measurement at 450 nm according to manufacturer's instructions.
To identify the epitope for mAb 3A8 on DIE3IR, seven overlapping antigen-peptides were generated (FIG. 15A) and an ELISA was performed to determine the binding between these peptides and the various mAb (FIGS. 15C to 15I).

[8] = molecular target: T1, FC5DIE3IR; assay: Hydrogen-Deuterium Exchange Mass Spectrometry (HDX-MS); format: binding; details: labelling 1, 10 and 60 min
[9] = tested on: glioblastoma U87MG cells; assay: Soft agar assay, U87MG; details: mAb 1 μM
[10] = tested on: ovarian cancer SKOV-3 cells; assay: Soft agar assay, SKOV-3; details: mAb 1 μM; FIG. 24D
[11] = tested on: glioblastoma U87MGvIII cells; assay: Soft agar assay, U87MGvIII; details: mAb 1 μM; FIG. 24C
[12] = −20 mV, after antibody application (1 μM)

VHH FC5, sequence (as listed by the source): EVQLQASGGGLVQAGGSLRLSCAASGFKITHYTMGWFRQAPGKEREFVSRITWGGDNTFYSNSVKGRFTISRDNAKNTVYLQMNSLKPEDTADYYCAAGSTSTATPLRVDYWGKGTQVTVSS

B1: 2G11: anti-hNav1.7 mouse monoclonal antibody, IgG2a, k; heavy chain SEQ ID NO: 117, light chain SEQ ID NO: 119 (antibody, V domains shown)
VH: QVQLQQPGAELVKPGASVKLSCKASGYTFTTYWMHWVKQRPGQGLEWIGEINPSNGRANYNEKFKSKATLTVDKSSSTAYMQLSSLTSEDSAVYYCLRSLGYFDYWGQGTTLTVSSAKTTAPSVYPLAPG
VL: DVVMTQSPLSLPVSLGDQASISCRSSQSLVHSNGNTYLHWYLQKAGQSPKFLIYKVSNRFSGVPDRFSGSGSGTDFTLKISRVEAEDLGVYFCSQSTHVPYTFGGGTKLEIKRADAAPTVSIFPPSS
modifications: Heavy chain of the 2G11 antibody without leader sequence; Light chain of the 2G11 antibody without leader sequence
- ELISA on live cells (duplicates) CHO-3E7 ([1]; duplicate 1): −0.027
- ELISA on live cells (duplicates) CHO-3E7 ([1]; duplicate 2): −0.025
- Voltage-dependence of activation (shift V1/2 activation) ([2]; 1 μM): −4.7 mV
- Voltage-dependence of the steady-state fast inactivation (shift V1/2 inactivation) ([2]; 1 μM): −13.9 mV
- Onset time of the effect (exponential fit of the current decay, T) ([2]; 2 μM, single time-course recording of the figure): 57 s
- Effect on hNav1.7 currents (in words) ([2]; example recordings, 1-3 μM): reduced the hNav1.7 currents
- Fast inactivation (time constant) [2, 12]: 0.81 ms
- Time-to-peak [2, 12]: 0.87 ms
- Percentage of effect after injection (on left paw withdrawal) ([3]; 100 μg intraplantar, 0 h): 0%
- Latency paw withdrawal ([3]; 100 μg intraplantar, 1 h): 8.80 ± 1.02 s
- Percentage of effect after injection (on left paw withdrawal) ([3]; 100 μg intraplantar, 1 h): 27.98% ± 7.17
- Latency paw withdrawal ([3]; 100 μg intraplantar, 2 h): 7.86 ± 0.33 s
- Percentage of effect after injection (on left paw withdrawal) ([3]; 100 μg intraplantar, 2 h): 22.02% ± 2.08
- Latency paw withdrawal ([3]; 100 μg intraplantar, 4 h): 8.45 ± 0.44 s
- Percentage of effect after injection (on left paw withdrawal) ([3]; 100 μg intraplantar, 4 h): 25.80% ± 2.82
- Maximum percentage of the effect (% Effect; % MPE) ([3]; 100 μg intraplantar): 27.98±7.17%
- Latency paw withdrawal ([3]; intraplantar, mAbs 100 μg, 11E5 dose not stated, time not given): 8.45 ± 0.44 s
- Time spent in pain behaviors (saline plus OD1 = 100%) [4]: 63.47±4.78%
- ka [5]: 9560 M⁻¹ s⁻¹
- kd [5]: 0.000526 s⁻¹
- Rmax (RU) ([5]; Fc-captured mAb, FC5-DIE3IR flowed, 25 °C): 84 RU
- Binding to FC5DIE3IR (comment, in words) ([5]; SPR, 25 °C): strong and specific binding; also recorded: strongly and specifically bound
- Binding to FC5 control (comment, in words) [6]: did not bind; also recorded: No binding
- Peptide in which the binding motif resides / that is bound [7]: pep #40a
- Stabilization of FC5DIE3IR in response to mAb binding (residues, differential HDX-MS) [8]: Asn121-Tyr134
- Reduction of colony formation ([9]; different experiment, FIG. 24B): 60%

B2: 1H5: anti-hNav1.7 mouse monoclonal antibody, IgG1, k; heavy chain SEQ ID NO: 121, light chain SEQ ID NO: 123 (antibody, V domains shown)
VH: EVKLVESGGGLVKPGGSLKLSCAASGFTFRSYAMSWVRQTPEKGLEWVASISSGGSTYYPDSVKGRFTISRDNAGNILYLQMSSLRSEDTAMYYCARGYDGYYERIWYYAMDYWGQGTSVTVSSAKTTPPSVY
VL: DIVMTQSQKFMSTSVGDRVTVSCKASQNVGTIVAWYQQKPGQSPKALIYSASYRFSGVPDRFTGSGSGTDFTLTISNVQSEDLAEYFCQQYNTYPLTFGSGTKLEIKRADAAPTVSIFPPSS
modifications: Heavy chain of the 1H5 antibody without leader sequence; Light chain of the 1H5 antibody without leader sequence
- ELISA on live cells (duplicates) CHO-3E7 ([1]; duplicate 1): −0.014
- ELISA on live cells (duplicates) CHO-3E7 ([1]; duplicate 2): 0.029
- Percentage of effect after injection (on left paw withdrawal) ([3]; 100 μg intraplantar, 0 h): 0%
- Latency paw withdrawal ([3]; 100 μg intraplantar, 1 h): 7.97 ± 0.61 s
- Percentage of effect after injection (on left paw withdrawal) ([3]; 100 μg intraplantar, 1 h): 21.85% ± 3.71
- Percentage of effect after injection (on left paw withdrawal) ([3]; 100 μg intraplantar, 2 h): 35.23% ± 0.88
- Percentage of effect after injection (on left paw withdrawal) ([3]; 100 μg intraplantar, 4 h): 31.20% ± 5.18
- Maximum percentage of the effect (% Effect; % MPE) ([3]; 100 μg intraplantar): 35.23±0.88%
- Time spent in pain behaviors (saline plus OD1 = 100%) [4]: 73.84%±16.78
- Binding to FC5 control (comment, in words) [6]: No binding
- Peptide in which the binding motif resides / that is bound [7]: Pep #3
- Reduction of colony formation ([9]; FIG. 24A): 37%
- Reduction of colony formation [10]: 57%
- Reduction of colony formation [11]: 60%
